Reference: paper PMC9361823, “The α- and β-Subunit Boundary at the Stem of the Mushroom-Like α3β3-Type Oxygenase Component of Rieske Non-Heme Iron Oxygenases Is the Rieske-Type Ferredoxin-Binding Site” (Applied and Environmental Microbiology, 2022)

Target: the molecule itself
Assay: SEC; α (His6) and untagged β co-expressed in E. coli and co-purified by metal chelation and gel filtration (Superdex200; 20 mM Tris-HCl, 0.2 M NaCl, 10% glycerol, pH 7.4); 150- to 200-kDa complex in solution (Fig. S1; the text does not say how the size was estimated)

B1: β-subunit of CumDO-O (CumA2) (natural protein, Pseudomonas fluorescens IP01, UniProt Q51744 1-186, looked up)
chain: MTSADLTKPIEWPEMPVSLELQNAVEQFYYREAQLLDYQNYEAWLALLTQDIQYWMPIRTTHTSRNKAMEYVPPGGNAHFDETYESMRARIRARVSGLNWTEDPPSRSRHIVSNVIVRETESAGTLEVSSAFLCYRNRLERMTDIYVGERRDILLRVSDGLGFKIAKRTILLDQSTITANNLSQFF
notes: CumA2, β-subunit of CumDO-O (cumene dioxygenase oxygenase component), not tagged; also called 21-kDa β-subunit
  binding result: binds

B2: α-subunit of CumDO-O (CumA1) (natural protein)
chain: not shown
notes: CumA1, α-subunit of CumDO-O (cumene dioxygenase oxygenase component); also called 51-kDa α-subunit; not shown: His6, C-terminal, kept
  binding result: binds
